According to publication PMC9898148 (Structure (London, England : 1993), 2022):
Values belong to the binder of their own block, whether it stands above or below them.

Columns and labels:
[1] = target: T1, hNAA35^28-725 (large auxiliary subunit of human NatC, N-terminally truncated) (human, UniProt Q5VZE5 28-725); test: cryo-EM structure
T1 sequence (looked up): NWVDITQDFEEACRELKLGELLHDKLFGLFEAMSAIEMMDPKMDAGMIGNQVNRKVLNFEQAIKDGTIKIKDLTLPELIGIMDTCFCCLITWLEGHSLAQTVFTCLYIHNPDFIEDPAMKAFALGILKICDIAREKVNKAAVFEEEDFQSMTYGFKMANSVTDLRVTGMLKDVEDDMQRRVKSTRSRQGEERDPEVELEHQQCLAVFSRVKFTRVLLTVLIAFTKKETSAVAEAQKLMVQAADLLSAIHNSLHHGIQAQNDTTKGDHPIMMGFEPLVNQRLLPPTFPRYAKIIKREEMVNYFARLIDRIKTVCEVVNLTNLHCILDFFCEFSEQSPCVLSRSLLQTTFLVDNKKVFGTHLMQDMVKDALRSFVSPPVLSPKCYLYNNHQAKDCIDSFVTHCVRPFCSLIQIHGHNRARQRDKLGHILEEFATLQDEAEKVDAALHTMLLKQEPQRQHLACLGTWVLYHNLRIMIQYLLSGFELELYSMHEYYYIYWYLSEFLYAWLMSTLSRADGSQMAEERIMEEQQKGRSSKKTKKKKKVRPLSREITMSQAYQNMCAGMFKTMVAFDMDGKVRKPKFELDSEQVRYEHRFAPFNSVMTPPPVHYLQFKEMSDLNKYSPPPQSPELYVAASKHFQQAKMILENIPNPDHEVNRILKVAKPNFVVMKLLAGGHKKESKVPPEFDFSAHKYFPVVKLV

[2] = target: T2, hNAA30^211-362 (catalytic subunit of human NatC, N-terminally truncated) (human, UniProt Q147X3 211-362); test: cryo-EM structure
T2 sequence (looked up): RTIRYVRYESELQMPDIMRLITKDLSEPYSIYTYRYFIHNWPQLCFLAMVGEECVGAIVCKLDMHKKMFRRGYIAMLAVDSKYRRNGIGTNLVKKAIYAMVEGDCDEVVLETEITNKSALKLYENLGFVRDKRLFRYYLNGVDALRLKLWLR

binding result [1]: binds
B1: hNAA38^1-125 (small auxiliary subunit of human NatC, full length) (natural protein, UniProt Q9BRA0 1-125, looked up)
chain: MAGAGPTMLLREENGCCSRRQSSSSAGDSDGEREDSAAERARQQLEALLNKTMRIRMTDGRTLVGCFLCTDRDCNVILGSAQEFLKPSDSFSAGEPRVLGLAMVPGHHIVSIEVQRESLTGPPYL

binding result [2]: binds
B2: CoA-Ac-MLGPE-NH2 bisubstrate inhibitor (peptide)
peptide: {CoA‑Ac}-MLGPE-NH2
